Where no end group is shown, it is not given here.
Columns and labels:
CRHR2 γ receptor = target: T1, CRHR2 γ receptor (Homo sapiens, UniProt Q13324, DEL106-106); experiment: Displacement of 125I-tyr-0-sauvagine from membranes of HEK293EBNA cells expressing CRHR2γ; format: binding; conditions: 60-70 pM 125I-tyr-0-sauvagine; 23° C., 4 hours; read-out: approximate IC50 for displacement of 125I-tyr-0-sauvagine
T1 construct: the full length CRHR2 γ cDNA (original cDNA library clone) was subcloned; expressed in transfected cells; membranes
T1 sequence (Q13324 with tags, fused parts or gaps isoform Q13324-3 DEL92-92): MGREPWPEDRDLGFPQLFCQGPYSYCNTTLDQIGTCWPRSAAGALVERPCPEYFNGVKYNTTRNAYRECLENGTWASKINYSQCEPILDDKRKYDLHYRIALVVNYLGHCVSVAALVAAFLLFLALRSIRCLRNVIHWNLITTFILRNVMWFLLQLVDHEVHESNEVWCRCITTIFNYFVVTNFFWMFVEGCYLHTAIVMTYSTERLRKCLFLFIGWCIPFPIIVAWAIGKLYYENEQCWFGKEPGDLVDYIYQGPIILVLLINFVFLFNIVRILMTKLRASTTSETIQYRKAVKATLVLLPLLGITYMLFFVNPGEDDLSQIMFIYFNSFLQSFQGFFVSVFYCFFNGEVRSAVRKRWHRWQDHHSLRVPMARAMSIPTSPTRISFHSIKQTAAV
Method: Buffer consisted of 50 mM HEPES, 10 mM MgCI2, 2 mM EGTA, and 1 μg/ml each of aprotinin, leupeptin, and pepstatin at a final pH of 7.0. Bacitracin at 0.15 mM and ovalbumin at 0.1% were added to the buffer on the day of use. Assays were performed at 23° C. for 4 hours in a final volume of 200 μl in 96-well microtiter plates. Reactions were initiated by the addition of 10-20 μg of membrane homogenates and terminated by rapid filtration through presoaked (0.3% polyethyleneimine) glass fiber filters using an Inotech 96-well harvester. The filters were washed quickly 3×with ice-cold solution (PBS+0.01% TritonX-100, pH7.2), dried briefly, then placed into polystyrene tubes and counted on an Isomedic 10/880 γ counter (counting efficiency ~80%). Data was analyzed by nonlinear regression analysis using the computer program MacLigand. Determinations were made from at least 3 separate experiments.

CRHR2 γ = target: T2, CRHR2 γ (Homo sapiens, UniProt Q13324, DEL106-106); experiment: Whole cell adenylate cyclase assay (cAMP accumulation) in HEK293EBNA cells expressing CRHR2γ; format: cell-based; conditions: rank order only; summary statement
T2 sequence (Q13324 with tags, fused parts or gaps DEL106-106): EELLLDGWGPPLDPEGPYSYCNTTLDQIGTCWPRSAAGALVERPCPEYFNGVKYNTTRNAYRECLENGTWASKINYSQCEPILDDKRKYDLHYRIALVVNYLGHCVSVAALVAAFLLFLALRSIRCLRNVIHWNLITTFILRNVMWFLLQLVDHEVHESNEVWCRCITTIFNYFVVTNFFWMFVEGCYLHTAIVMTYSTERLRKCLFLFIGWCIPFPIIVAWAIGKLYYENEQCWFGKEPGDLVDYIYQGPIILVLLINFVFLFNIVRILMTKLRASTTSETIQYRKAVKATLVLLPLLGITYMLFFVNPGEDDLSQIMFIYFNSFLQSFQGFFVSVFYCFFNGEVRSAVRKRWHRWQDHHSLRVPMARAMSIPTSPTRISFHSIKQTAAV
Method: HEK293EBNA cells expressing the CRHR2 γ were incubated in DMEM with low serum (0.1% FBS) at 37° C., 5% CO2 for at least 2 hrs before the addition of isobytylmethoxyxanthine (IBMX) to the media at a final concentration of 0.1 mM. The cells were incubated with the IBMX for 30 minutes; test peptides or compounds were then added to the media and incubated therein for 25-30 min. The media was then aspirated from the cells and replaced with ice cold sodium acetate buffer containing 1 mM IBMX. The cells were then disrupted by a freeze-thaw, followed by sonication. Supernatants were assayed for cAMP levels with PerSeptive Diagnostics EIA Kit.

## urocortin: mammalian neuropeptide related to fish urotensin I and to corticotropin-releasing factor (DNPSLSIDLTFHLLRTLLELARTQSQRERAEQNRIIFDSV; ends and bridges not checked; UniProt P55089 83-122, looked up)
CRHR2 γ receptor
  IC50: ~2 nM

## r/h CRH: rat/human corticotropin-releasing hormone, agonist peptide
CRHR2 γ
  potency of stimulation of adenylate cyclase activity (rank order), measured by intracellular cAMP accumulation: sauvagine>urotensin>rat/human CRH

From patent US5888811A, “Corticotropin-releasing hormone receptor” (DuPont Pharmaceuticals Company, priority 1997, dated 1999)
